Experimental data: PMC4325984 (The Biochemical journal, 2015)

Target: rabbit muscle ADP-G-actin (rabbit, UniProt P68135 1-377)
Assay: ITC

Row | Kd | dH | stoichiometry N | Binder
1 | 8.62 nM | -6.72 ± 0.117 kcal/mol | – | UNC-60B (natural protein) MASGVKVDPSCKNAYDLLHNKHQHSYIIFKIDKNDTAIVVEKVGEKNAPYAEFVEEMKKLVEDGKECRYAAVDVEVTVQRQGAEGTSTLNKVIFVQYCPDNAPVRRRMLYASSVRALKASLGLESLFQVQASEMSDLDEKSVKSDLMSNQRI
2 | 32.2 nM | -2.31 ± 0.0711 kcal/mol | 1 | UNC-60A (natural protein) MSSGVMVDPDVQTSFQKLSEGRKEYRYIIFKIDENKVIVEAAVTQDQLGITGDDYDDSSKAAFDKFVEDVKSRTDNLTDCRYAVFDFKFTCSRVGAGTSKMDKIIFLQICPDGASIKKKMVYASSAAAIKTSLGTGKILQFQVSDESEMSHKELLNKLGEKYGDH
